Test results reported in patent publication US20220315926.
Like-named read-outs stand apart in the source and are kept apart here.

Tests used:
[1] = biological target: T1, DEN4-NS1 (Dominica/814669/1981) (Dengue virus 4) (UniProt P09866); test: EMSA; conditions: Ds at both x; 5' biotin-dT; 2 M urea gel
T1 sequence: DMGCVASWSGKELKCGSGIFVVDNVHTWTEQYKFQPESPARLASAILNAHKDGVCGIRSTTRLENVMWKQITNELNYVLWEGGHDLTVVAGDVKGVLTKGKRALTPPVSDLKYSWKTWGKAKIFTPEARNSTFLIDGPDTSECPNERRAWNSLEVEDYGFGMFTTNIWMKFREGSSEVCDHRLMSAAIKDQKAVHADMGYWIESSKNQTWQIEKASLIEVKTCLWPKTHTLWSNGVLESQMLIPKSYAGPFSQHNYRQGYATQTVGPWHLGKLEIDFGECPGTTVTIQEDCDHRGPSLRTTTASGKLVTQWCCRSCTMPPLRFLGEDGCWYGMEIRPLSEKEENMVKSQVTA

[2] = biological target: T2, DEN2-NS1 (Thailand/16681/84) (Dengue virus 2) (UniProt P29990); test: EMSA
T2 sequence: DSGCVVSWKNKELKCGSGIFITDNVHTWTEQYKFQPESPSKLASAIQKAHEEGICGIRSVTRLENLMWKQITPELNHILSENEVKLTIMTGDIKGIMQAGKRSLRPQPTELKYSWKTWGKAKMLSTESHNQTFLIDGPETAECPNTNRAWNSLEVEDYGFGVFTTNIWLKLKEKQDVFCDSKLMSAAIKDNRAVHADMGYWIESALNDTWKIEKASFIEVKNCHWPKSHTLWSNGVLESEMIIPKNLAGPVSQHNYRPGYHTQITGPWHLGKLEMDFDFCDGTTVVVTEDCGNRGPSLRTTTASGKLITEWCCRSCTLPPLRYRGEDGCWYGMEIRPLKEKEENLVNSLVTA

[3] = biological target: T2, DEN2-NS1 (Thailand/16681/84) (Dengue virus 2); test: SPR
[4] = biological target: T1, DEN4-NS1 (Dominica/814669/1981) (Dengue virus 4); test: SPR
[5] = biological target: SIN DEN1-NS1 (Singaporean variant, 96.3% homology) (Dengue virus 1) (UniProt P33478); test: SPR; conditions: Ds at both x, 25 C, 150 mM NaCl, 1 mM MgCl2
[6] = biological target: T3, DEN3-NS1 (Sri Lanka D3/H/IMTSSA-SRI/2000/1266) (Dengue virus 3) (UniProt Q6YMS4); test: SPR; conditions: Ds at both n; biotin-dT in 3' mini-hairpin
T3 sequence: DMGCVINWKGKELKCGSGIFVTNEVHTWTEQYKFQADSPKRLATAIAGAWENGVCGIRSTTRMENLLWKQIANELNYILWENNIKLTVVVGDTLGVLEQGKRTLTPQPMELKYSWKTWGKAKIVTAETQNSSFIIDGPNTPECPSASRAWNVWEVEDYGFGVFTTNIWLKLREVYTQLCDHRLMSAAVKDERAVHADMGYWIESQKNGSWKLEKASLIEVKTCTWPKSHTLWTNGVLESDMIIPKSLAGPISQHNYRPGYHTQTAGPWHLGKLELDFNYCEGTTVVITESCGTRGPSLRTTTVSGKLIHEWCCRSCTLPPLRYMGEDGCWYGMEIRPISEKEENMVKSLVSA

[7] = biological target: T4, DEN1-NS1 (Nauru/Western Pacific/1974) (Dengue virus 1) (UniProt P17763); test: SPR; conditions: Ds unnatural base at both n; biotin-dT in 3' mini-hairpin CGCG(L)AGCG
T4 sequence: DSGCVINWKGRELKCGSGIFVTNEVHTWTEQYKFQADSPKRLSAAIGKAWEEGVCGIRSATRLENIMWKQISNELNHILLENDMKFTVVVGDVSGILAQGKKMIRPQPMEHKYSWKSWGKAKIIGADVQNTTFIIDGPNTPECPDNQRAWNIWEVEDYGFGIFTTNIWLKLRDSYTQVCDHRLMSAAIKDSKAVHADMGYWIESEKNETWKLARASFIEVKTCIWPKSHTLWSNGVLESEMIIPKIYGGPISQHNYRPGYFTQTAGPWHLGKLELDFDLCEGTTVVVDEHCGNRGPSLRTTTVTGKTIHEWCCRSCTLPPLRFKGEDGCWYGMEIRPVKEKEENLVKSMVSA

[8] = two Ds and one diol-Pa, biotin-dT in 3' mini-hairpin
[9] = Ds at both n, biotin-dT in 3' mini-hairpin

“TGATATGGTCTACTGTATAATCCGCNTTCGTCATGTGGNTTGGATCTGGGTCTGGCAGACAAGCGGAGTAGTTAGACC [D4-4-78]” was tested, and the binding signal [1] was greater than 60 % shifted.
Work on “GGTCCGNCTGGGAACAAGNGGCGGGAGGGANGGGTGTGGGTGCGACAAGCGGCGCGTAGCG [D2-1d-61h]” yielded a binding signal [2, 8] greater than 60 % shifted.
“TTTTCGCACTCCATGATATGGTCTACTGGTCCGNCTGGGAACAAGNGGCGGGAGGGANGGGTGTGGGTGCGACAAGCGGAGTAGTTAGACCGTCAAA [D2-1y-96]” showed a Kd ([3]; two Ds and one diol-Px, 5' biotin) of 0.041 nM.
“GGCTGGTCCGNCTGGGAACAAGNGGCGGGAGGGANGGGTGTGGGTGCGACAAGCGGACCAGCCCGCGTAGCG [AptD2e (Cont-D2, natural-base variant)]” showed a binding signal [2] of less than 10 % shifted.
“TGATATGGTCTACTGTGGCGCGAGGGAATCNACGCNTATCAAATANAAACAGCTAATGACAAGCGGAGTAGTTAGACC [D4-3-78]” gave a Kd ([4]; Ds at x (three), 5' biotin-dT) of 0.034 nM.
Sequence “GGCTGGTCCGNCTGGGAACAAGNGGCGGGAGGGANGGGTGTGGGTGCGACAAGCGGACCAGCCCGCGTAGCG [D2-1d-72h-c]” has a binding signal ([2]; Ds at 11, diol-Pa at 35, biotin-dT in 3' mini-hairpin) of less than 10 % shifted.
With “GACGGTCTACTGGTCCGNCTGGGAACAAGNGGCGGGAGGGANGGGTGTGGGTGCGACAAGCGGAGTAGTTAGACCGTCCGCGTAGCG [D2-1d-87h]” the Kd [3, 8] was 0.105 nM.
Sequence “GGCTGGTCCGACTGGGAACAAGNGGCGGGAGGGANGGGTGTGGGTGCGACAAGCGGACCAGCCCGCGTAGCG [D2-1d-72h(A) (D2-1d-72h-b)]” has a binding signal ([2]; Ds at position 23, diol-Pa at position 35, biotin-dT in 3' mini-hairpin) greater than 40 % shifted.
“TGATATGGTCTACTGTCACANATCGCCGTAAAGNCGAAGAGCTGCGGAATCTAAGGTGACAAGCGGAGTAGTTAGACC [D4-2-78]” was tested, and the binding signal [1] was greater than 60 % shifted.
Work on “CTCCGCTGTCAAACGGNTATCACGGCNACACACCTGCGGACAGCGGAGCGCGTAGCG [D4-1-57h]” yielded a Kd [4, 9] of 0.029 nM.
“GGCTGGTCCGNCTGGGAACAAGNGGCGGGAGGGANGGGTGTGGGTGCGACAAGCGGACCAGCCCGCGTAGCG [D2-1d-72h-d]” showed a binding signal ([2]; Ds at 11 and 23, biotin-dT in 3' mini-hairpin) of less than 10 % shifted.
Sequence “GCACTCCATGATATGGTCTACTGAGCGAGACGATGCTGCTAAANTACGCCGTGGTNACGAAGACAGACAAGCGGAGTGTCGCGTAGCG [19D1F1-3]” has a Kd ([5]; biotin-dT in 3' mini-hairpin) of 0.027 nM.
“CCGCTTGTCATCTANCCTGGCCNTGTGGTACTGTAACGGCTGACAAGCGGCGCGTAGCG [D3-2-59h (AptD3)]” gave a Kd [6] of 0.057 nM.
For “CGGCGGAGACGTAACGCNTATCAAATCNAAACAGCTTAGGGTCCGCCGCGCGTAGCG [D4-3-57h (AptD4)]”, the Kd [4, 9] was 0.03 nM.
With “TGATATGGTCTACTGTCTCAACGGTTGTCAAACGGNTATCACGGCNACACACCTGCGGACAAGCGGAGTAGTTAGACC [D4-1-78]” the Kd ([4]; Ds at both x, 5' biotin-dT) was 0.062 nM.
For “GGCTGGTCCGNCTGGGAACAAGNGGCGGGAGGGANGGGTGTGGGTGCGACAAGCGGACCAGCCCGCGTAGCG [D2-1d-72h (AptD2)]”, the Kd ([3]; Ds at positions 11 and 23, diol-Pa at position 35, biotin-dT in 3' mini-hairpin) was 0.104 nM.
“TTTTCGCACTCCATGATATGGTCTACTGGTCCGNCTGGGAACAAGNGGCGGGAGGGANGGGTGTGGGTGCGACAAGCGGAGTAGTTAGACCGTCAAA [D2-1-96(3Ds)]” gave a binding signal ([2]; three Ds) of less than 10 % shifted.
“CCCCAGACGGACTGGTGTNCTCGGNATGGCCGTCTGGGGCGCGTAGCG [D1-1-48h (AptD1)]” was tested, and the Kd [7] was 0.182 nM.
“TTTTCGCACTCCATGATATGGTCTACTGAGCGAGACGATGCTGCTAAANTACGCCGTGGTNACGAAGACAGACAAGCGGAGTAGTTAGACCGTGAAA [19D1F1 (isolate, AptD1b)]” was tested, and the Kd ([5]; 5' biotin) was 0.0091 nM.
